The values below come from US20100178280.

This data set addresses T1, acetylated p53 peptides (p53-382/diAc), P04637.
T1 chain: RHKK

B1: recombinant mouse Sirt7 protein (protein)
chain: MAAGGGLSRSERKAAERVRRLREEQQRERLRQVSRILRKAAAERSAEEGRLLAESEDLVTELQGRSRRREGLKRRQEEVCDDPEELRRKVRELAGAVRSARHLVVYTGAGISTAASIPDYRGPNGVWTLLQKGRPVSAADLSEAEPTLTHMSITRLHEQKLVQHVVSQNCDGLHLRSGLPRTAISELHGNMYIEVCTSCIPNREYVRVFDVTERTALHRHLTGRTCHKCGTQLRDTIVHFGERGTLGQPLNWEAATEAASKADTILCLGSSLKVLKKYPRLWCMTKPPSRRPKLYIVNLQWTPKDDWAALKLHGKCDDVMQLLMNELGLEIPVYNRWQDPIFSLATPLRAGEEGSHSRKSLCRSREEAPPGDQSDPLASAPPILGGWFGRGCAKRAKRKKVA
Take B1: the “deacetylation of acetylated p53 peptides in vitro (fluorometric deacetylation assay)” value is given as “p53 acetylated peptides were efficiently deacetylated by Sirt7 in vitro”; the “deacetylation of p53 peptides in vitro (fluorometric deacetylation assay)” value is “Sirt7 and Sirt1 deacetylate p53 peptides in vitro”.

B2: recombinant mouse Sirt1 protein (protein)
chain: MADEVALALQAAGSPSAAAAMEAASQPADEPLRKRPRRDGPGLGRSPGEPSAAVAPAAAGCEAASAAAPAALWREAAGAAASAEREAPATAVAGDGDNGSGLRREPRAADDFDDDEGEEEDEAAAAAAAAAIGYRDNLLLTDGLLTNGFHSCESDDDDRTSHASSSDWTPRPRIGPYTFVQQHLMIGTDPRTILKDLLPETIPPPELDDMTLWQIVINILSEPPKRKKRKDINTIEDAVKLLQECKKIIVLTGAGVSVSCGIPDFRSRDGIYARLAVDFPDLPDPQAMFDIEYFRKDPRPFFKFAKEIYPGQFQPSLCHKFIALSDKEGKLLRNYTQNIDTLEQVAGIQRILQCHGSFATASCLICKYKVDCEAVRGDIFNQVVPRCPRCPADEPLAIMKPEIVFFGENLPEQFHRAMKYDKDEVDLLIVIGSSLKVRPVALIPSSIPHEVPQILINREPLPHLHFDVELLGDCDVIINELCHRLGGEYAKLCCNPVKLSEITEKPPRPQKELVHLSELPPTPLHISEDSSSPERTVPQDSSVIATLVDQATNNNVNDLEVSESSCVEEKPQEVQTSRNVENINVENPDFKAVGSSTADKNERTSVAETVRKCWPNRLAKEQISKRLEGNQYLFVPPNRYIFHGAEVYSDSEDDVLSSSSCGSNSDSGTCQSPSLEEPLEDESEIEEFYNGLEDDTERPECAGGSGFGADGGDQEVVNEAIATRQELTDVNYPSDKS
For the protein B2, the “deacetylation of p53 peptides in vitro (fluorometric deacetylation assay)” value is “Sirt7 and Sirt1 deacetylate p53 peptides in vitro”.
